Article PMC3387196

Target: Nedd4 (UniProt P46935)
Experiment: anti-FLAG co-IP, Ala mutants
Settings: reference: wild type; sites T1859,S1962

binding against the reference: weaker
Substance: Kif26b (from UniProt Q7TNC6) T1859A/S1962A
